One experiment has as its target FcγRIIIa 158F (UniProt P08637). Description: biosensor with SA sensor, biotin-FcγRIIIa 158F loaded, antibody in solution.
The target in the next experiment is FcγRIIIa 158V (UniProt P08637). Description: biosensor with SA sensor, biotin-FcγRIIIa 158V loaded, antibody in solution (7 concentrations, 2x gradient from 500 nM).
Sequence of FcγRIIIa 158V (P08637 17-208 F176V): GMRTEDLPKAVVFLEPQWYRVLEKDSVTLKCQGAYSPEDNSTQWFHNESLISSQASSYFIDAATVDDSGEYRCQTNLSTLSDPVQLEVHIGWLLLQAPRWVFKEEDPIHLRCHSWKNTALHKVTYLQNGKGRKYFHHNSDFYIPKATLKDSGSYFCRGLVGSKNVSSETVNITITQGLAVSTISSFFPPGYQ

Sequence of FcγRIIIa 158F (P08637 17-208 limits assumed): as the sequence (P08637 17-208 F176V) above, with V160F counted along it

What is called Kd is the equilibrium constant for the complex coming apart. A higher Kd goes with lower affinity. For the substance Obinutuzumab (antibody), the Kd in the experiment with FcγRIIIa 158F turned out to be 226 nM; in the experiment with FcγRIIIa 158V, 36.8 nM.

The record behind these values is patent US20200199236A1.
